Reference: patent publication US20260209387A1, “SINGLE-DOMAIN ANTIBODY FOR INHIBITION OF NEUTROPHIL ELASTASE ACTIVITY” (UNIVERSITE DE LIEGE, priority 2023, published 2026)

T1: human neutrophil elastase (human, UniProt P08246 30-247, glycans (NAG-NAG-FUC) at N109 and N204, chymotrypsinogen numbering, seen in the crystal)
T1 construct: Purified hNE bought from Elastin Products Company; In the crystal, density is defined for I1 to Q218; also called hNE; HNE
T1 sequence: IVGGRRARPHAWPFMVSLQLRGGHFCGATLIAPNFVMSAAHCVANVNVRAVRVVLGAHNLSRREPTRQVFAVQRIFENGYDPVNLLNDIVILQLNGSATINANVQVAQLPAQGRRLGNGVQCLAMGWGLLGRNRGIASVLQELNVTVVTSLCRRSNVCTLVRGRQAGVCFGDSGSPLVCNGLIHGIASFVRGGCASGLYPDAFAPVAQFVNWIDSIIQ

T2: human proteinase 3 (human, UniProt P24158 28-248)
T2 sequence (looked up): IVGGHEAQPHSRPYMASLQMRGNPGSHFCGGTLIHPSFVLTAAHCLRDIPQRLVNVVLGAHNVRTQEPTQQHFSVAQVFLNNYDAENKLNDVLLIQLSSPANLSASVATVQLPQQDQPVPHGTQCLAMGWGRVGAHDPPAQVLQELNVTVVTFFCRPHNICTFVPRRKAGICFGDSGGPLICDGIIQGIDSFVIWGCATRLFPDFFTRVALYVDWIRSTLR

T3: mouse neutrophil elastase (mouse, UniProt Q3UP87 29-265, limits assumed)
T3 construct: also called mNE; murine elastase
T3 sequence (looked up): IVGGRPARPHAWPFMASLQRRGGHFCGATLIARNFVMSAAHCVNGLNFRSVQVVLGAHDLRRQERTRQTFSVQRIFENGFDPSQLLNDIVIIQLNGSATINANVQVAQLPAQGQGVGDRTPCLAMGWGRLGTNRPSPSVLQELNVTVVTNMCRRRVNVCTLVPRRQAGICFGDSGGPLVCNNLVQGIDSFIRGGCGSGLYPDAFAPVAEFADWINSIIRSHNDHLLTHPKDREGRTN

T4: human cathepsin G (human, UniProt P08311 21-244)
T4 construct: also called hCG; CG
T4 sequence (looked up): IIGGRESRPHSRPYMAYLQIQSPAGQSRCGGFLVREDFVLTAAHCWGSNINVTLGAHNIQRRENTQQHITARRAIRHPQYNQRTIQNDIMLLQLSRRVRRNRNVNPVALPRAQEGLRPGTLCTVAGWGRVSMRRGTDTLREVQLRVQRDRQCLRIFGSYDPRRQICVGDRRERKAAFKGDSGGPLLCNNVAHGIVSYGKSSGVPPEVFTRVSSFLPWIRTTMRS


Columns and labels:
[1] = target: T1, human neutrophil elastase; assay: enzymatic assay, substrate N-Succinyl-Ala-Ala-Ala-pNA, Morrison equation for tight binders, N=3
Description: Inhibition of the hydrolysis of a chromogenic substrate. […] Briefly, hNE (Elastin products company, EPC, United States) was resuspended at 1 mg·mL⁻¹ in 50 mM sodium acetate buffer pH 5 containing 100 mM NaCl and stored at 4° C. The substrate Succinyl-Ala-Ala-Ala-paraNitroAnilide was dissolved at 1 mM in 0.1 M Tris pH 7.5 with NaCl 0.5 M and NaN3 0.01% (% w/v) and stored at 4° C. 230 μl of substrate (1 mM) were mixed with 10 μl of Bovine Serum Albumin 9 μM (BSA, Sigma-Aldrich, Germany) and incubated 20 min at 25° C. in a clear flat bottom 96-well plate (Greiner Bio-One, Belgium). […] Immediately after, the hNE was added to the mix at a final concentration of 50 nM. […] The initial velocity determined in the presence of the ISVD at different Nb: hNE ratios was compared to that measured in the absence of the ISVD, to determine the residual activity. The delay between the addition of hNE and the first measurement was about 100 seconds. […] In some experiments, the ISVD was preincubated for 15 minutes with the hNE and the complex was added to the substrate.
The Kᵢ was calculated averaging three Kᵢ of three independent curves, each curve representing experiment carried out with a different lot of production of the Nb.

human proteinase 3 [2] = target: T2, human proteinase 3; assay: cell-based or functional assay
[3] = target: T1, human neutrophil elastase; assay: cell-based or functional assay
[4] = target: T3, mouse neutrophil elastase; assay: enzymatic assay, substrate MeOSuc-Ala-Ala-Pro-Val-AMC, Morrison equation for tight binders, N=6
Description: The substrate used were Succinyl-Ala-Ala-Ala-paraNitroAnilide (1 mM in 0.1 M Tris pH 7.5 with NaCl 0.5 M and NaN3 0.01%, % w/v from Sigma-Aldrich) for pPE, MeOSuc-Ala-Ala-Pro-Val-AMC (100 μM in Tris 50 mM, NaCl 1 M, 0.05% (% w/v) Brij-35, pH 7.5) for mNE, N-Succinyl-Ala-Ala-Pro-Phe p-nitroanilide (0.45 mM in 100 mM HEPES pH 7.5, from Sigma Aldrich) for hCG and Boc-Ala-Ala-Nva-SBzl (0.22 mM in 100 mM MOPS pH 5.0 0.5 M NaCl, 100 μM DTNB, DMSO 10%, from EPC) for PR3. mNE (rmELA2 from R&D systems, United Kingdom) was first activated according to the supplier information. In brief, mNE was incubated with recombinant mouse active cathepsin C/DPPIy (rmCathepsin C from R&D systems) in MES 50 mM, NaCl 50 mM, pH 5.5 for 2 h at 37° C. […] The hydrolysis of the substrate and the determination of the residual activity were carried out as explained above for the inhibition of hNE.

[5] = target: T3, mouse neutrophil elastase; assay: cell-based or functional assay
[6] = target: T1, human neutrophil elastase; assay: cell-based or functional assay; remark: listed apart in the source
[7] = target: T1, human neutrophil elastase; assay: BLI (Octet HTX), biotinylated NbE201 on streptavidin sensor, hNE as analyte, global 1:1 fit, N=2
Description: FIG. 6. […] On the x-axis, the time in seconds. On the y-axis, the interference signal in nm. A vertical dashed line divides the association step from the dissociation step. […] Each curve (in black) represents measured data (□□) referring to a single concentration of hNE used: 25 nM, 6.25 nM, 3.125 nM, 1.563 nM and 0.753 nM (from top to bottom). In grey, is represented the fitting of the data from which the KD value and kinetic parameters were derived. Data were fitted accordingly to a 1:1 ligand model by using the Data Analysis Octet Software Version 10.0 (Satorius). Independent replicates of the experiment were done (N=2) and the mean (±st. dev.) of the kinetics parameters measured and indicated in Table 2.
(§1) Then, the biosensors were immersed in a solution of hNE at different concentrations ([…]-0.753 nM). Association and dissociation kinetics were measured for 180 s and 300 s respectively, in 10×KB buffer. All the experiments were carried out at 30° C. in 96-wells or 384-wells black-bottom microplates in polypropylene (Greiner Bio-One, Belgium) and with orbital agitation (1500 rpm). The sensorgrams obtained were fitted globally to a 1:1 model to derive the rate constants for association (kₒₙ) and dissociation (koff) and the equilibrium dissociation constant (KD=koff/kₒₙ). […] were carried out. The error on KD was calculated using the following equation: […]

[8] = target: T1, human neutrophil elastase; assay: BLI, comparison of the values in Table 2
human proteinase 3 [9] = target: T2, human proteinase 3; assay: BLI, biotinylated NbE201 on streptavidin sensors, protease in solution
Description: (§2) The biosensors were then immersed in a 50 nM solution of a serine protease. The proteases tested were human cathepsin G (hCG), human proteinase 3 (hPR3), mouse pancreatic elastase (mPE), mouse neutrophil elastase (mNE) and porcine pancreatic elastase (pPE). hNE was used a positive control. The association and dissociation were measured for 70 s and 320 s respectively, in kinetic buffer (KB, Sartorius). The experiments were carried out at 30° C. in 384-wells black-bottom microplates in polypropylene (Greiner Bio-One, Belgium) and with orbital agitation (1000 rpm).

human cathepsin G = target: T4, human cathepsin G; assay: as above
Description: as §2

[10] = target: T5, porcine pancreatic elastase (pig, UniProt P00772 27-266); assay: as above
T5 construct: also called pPE; PPE
T5 sequence (P00772 27-266): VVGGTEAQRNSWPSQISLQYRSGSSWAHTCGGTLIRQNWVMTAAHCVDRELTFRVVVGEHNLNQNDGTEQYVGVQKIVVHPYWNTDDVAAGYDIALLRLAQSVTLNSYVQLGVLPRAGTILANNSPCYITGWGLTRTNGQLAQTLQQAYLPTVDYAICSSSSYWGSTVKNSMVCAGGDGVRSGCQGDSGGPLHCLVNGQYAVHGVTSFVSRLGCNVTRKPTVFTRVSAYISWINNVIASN
Description: as §2

[11] = target: T3, mouse neutrophil elastase; assay: BLI (Octet HTX), NbE201_Cter Biot on streptavidin sensor, mNE as analyte, 1:1 fit, N=1
Description: FIG. 9. […] On the x-axis, the time in seconds. On the y-axis, the interference signal in nm. The dashed line separates the association step from the dissociation step. In black, the experimental signal. In grey, the fitting using a 1:1 model. The mNE concentrations tested are 100-50-25-12.5-6.25-3.125 nM, from top to bottom. Association and dissociation kinetics were measured for 300 s and 600 s respectively. The obtained sensorgrams were fitted to a 1:1 model by using the Data Analysis Octet Software Version 10.0 (Sartorius) to derive the rate constants for association (kₒₙ) and dissociation (koff) and the equilibrium dissociation constant (KD=koff/kₒₙ).
as §1

| Binder | Ki [1] [nM] | inhibition of protease activity at NbE201:enzyme ratio of 60 (human proteinase 3 [2]) [%] | IC50, inhibition of elastin hydrolysis by hNE (132 nM) [3] [nM] | fold inhibitory activity relative to mNE [3] [fold] | molar ratio inhibitor:hNE for total elastase inhibition in vitro [3] | Ki [4] [nM] | IC50, inhibition of hydrolysis of MeOSuc-Ala-Ala-Pro-Val-AMC by mNE (14.7 nM) [5] [nM] | IC50, inhibition of hydrolysis of N-Succinyl-Ala-Ala-Ala-paraNitroAnilide by hNE (50 nM) [6] [nM] | Kd [7] [nM] | koff [7] [s⁻¹] | kon [7] [M⁻¹ s⁻¹] | fold affinity relative to mNE [8] [fold] | binding result (human proteinase 3 [9]) | binding result (human cathepsin G) | binding result [10] | Kd [11] [nM] | koff [11] [s⁻¹] | kon [11] [M⁻¹ s⁻¹] |
| --- | --- | --- | --- | --- | --- | --- | --- | --- | --- | --- | --- | --- | --- | --- | --- | --- | --- | --- |
| NbE201 (VHH, Llama VHH made in the periplasm of E. coli WK6 (pHEN6 vector) and purified by IMAC; This form was used in the enzymatic assays and for crystallisation; also called NbE201 wt; NbE201-WT) VHH: QVQLQESGGGLVQAGGSLRLSCVVPGRTISLYRMGWFRQAPGKEREFVAGINWSGDMTDYVDSVKGRFTISRDNAKNTVYLEMNSLKPEDTAIYYCTADPKLLPLADSSYGYWGQGTQVTVSS | 4.1 | 20 | 488 | ~10 | 3 NbE201:hNE molar ratio | 38.8 | 49.4 | 38.3 | – | – | – | – | – | – | – | – | – | – |
| biotinylated NbE201 (VHH, C-terminal Cys biotinylated with EZ-Link Maleimide-PEG2-Biotin, Form immobilised on streptavidin sensors in all BLI experiments; It was produced in the pHEN25 vector and biotinylated site-specifically on its C-terminal Cys; also called NbE201_Cter Biot; biotinylated ISVD NbE201) VHH: QVQLQESGGGLVQAGGSLRLSCVVPGRTISLYRMGWFRQAPGKEREFVAGINWSGDMTDYVDSVKGRFTISRDNAKNTVYLEMNSLKPEDTAIYYCTADPKLLPLADSSYGYWGQGTQVTVSS | – | – | – | – | – | – | – | – | 1.3 | 0.0032 | 2.6e+06 | ~10 | no binding (tested: 50 nM) | no binding (tested: 50 nM) | no binding (tested: 50 nM) | 49 | 0.019 | 390000 |
